Measurements as given in patent US20220395553A1 (COHBAR, published 2022).
Square brackets hold non-standard residues; d marks the D form. Ends that are not written are not given here.

B1: SEQ ID NO: 80 (peptide)
peptide: LERYHHSVRSSLRGYTK
B2: SEQ ID NO: 53 (peptide)
peptide: LRRFHHSVRSSLRPYTK
B3: SEQ ID NO: 54 (peptide)
peptide: LERFHHSVRSSLRPYTK
B4: SEQ ID NO: 60 (peptide)
peptide: LERYHHSVRSSLRPFTK
B5: SEQ ID NO: 57 (peptide)
peptide: LERYHHS[dA]RSSLRPYTK-NH2
modifications: N-terminus assumed
SMILES: CC(C)C[C@H](NC(=O)[C@H](CO)NC(=O)[C@H](CO)NC(=O)[C@H](CCCNC(=N)N)NC(=O)[C@@H](C)NC(=O)[C@H](CO)NC(=O)[C@H](Cc1c[nH]cn1)NC(=O)[C@H](Cc1c[nH]cn1)NC(=O)[C@H](Cc1ccc(O)cc1)NC(=O)[C@H](CCCNC(=N)N)NC(=O)[C@H](CCC(=O)O)NC(=O)[C@@H](N)CC(C)C)C(=O)N[C@@H](CCCNC(=N)N)C(=O)N1CCC[C@H]1C(=O)N[C@@H](Cc1ccc(O)cc1)C(=O)N[C@H](C(=O)N[C@@H](CCCCN)C(N)=O)[C@@H](C)O
B6: SEQ ID NO: 33 (peptide)
peptide: [dA]RRYHHSVRSSLRPYTK
B7: SEQ ID NO: 34 (peptide)
peptide: [dA]ERYHHSVRSSLRPYTK
B8: SEQ ID NO: 35 (peptide)
peptide: [dA]ERYHHS[dA]RSSLRPYTK
B9: SEQ ID NO: 36 (peptide)
peptide: LRDYHHSVRSSLRPYTK
B10: SEQ ID NO: 66 (peptide)
peptide: LRRYHHSVDSSLRPYTK
B11: SEQ ID NO: 67 (peptide)
peptide: LRRYHHSVRSSLDPYTK
B12: SEQ ID NO: 38 (peptide)
peptide: LRRYHHTVRSSLRPYTK
B13: SEQ ID NO: 71 (peptide)
peptide: LRRYHHSVRSTLRPYTK
B14: SEQ ID NO: 72 (peptide)
peptide: LRRYHHSVRSSLRPYSK
B15: SEQ ID NO: 81 (peptide)
peptide: LERYHHS[dA]RSSLRGYTK
B16: SEQ ID NO: 43 (peptide)
peptide: LERYNHS[dA]RSSLRPYTK
B17: SEQ ID NO: 55 (peptide)
peptide: LERFHHS[dA]RSSLRPYTK
B18: SEQ ID NO: 59 (peptide)
peptide: LRRYHHSVRSSLRPFTK
B19: SEQ ID NO: 61 (peptide)
peptide: LERYHHS[dA]RSSLRPFTK

Each binder was assayed against T1, CXCR4 on cultured U937 and Jurkat cells (human, UniProt P61073 1-352) (assay: cell-based or functional assay).
T1 sequence (P61073 whole entry): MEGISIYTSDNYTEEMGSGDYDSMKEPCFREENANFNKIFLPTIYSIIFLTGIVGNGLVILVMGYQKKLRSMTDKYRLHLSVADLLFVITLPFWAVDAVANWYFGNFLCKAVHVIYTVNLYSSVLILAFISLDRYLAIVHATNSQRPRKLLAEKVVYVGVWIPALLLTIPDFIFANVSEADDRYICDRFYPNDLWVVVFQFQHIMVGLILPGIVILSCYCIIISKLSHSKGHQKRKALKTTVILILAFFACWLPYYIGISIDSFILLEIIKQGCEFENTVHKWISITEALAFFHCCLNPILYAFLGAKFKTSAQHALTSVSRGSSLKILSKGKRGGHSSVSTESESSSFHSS

Point of comparison: B2, “Percent Inhibition of CXCL12 Mediated Migration (1.1 µM Test Article; Jurkat cells)” value 59%. Against it:
- B1 — higher, 71%
- B3 — lower, 54%
- B4 — lower, 33%
- B5 — lower, 30%

Target: T1, CXCR4 on cultured U937 and Jurkat cells
Assay: cell-based or functional assay
Remark: another data set of the same source

Point of comparison: B13, “Percent Inhibition of CXCR4/CXCL12 Induced p-MEK (100 nM Test Article)” value 56%. Against it:
- B1 — lower, 52%
- B2 — higher, 62%
- B3 — lower, 46%
- B4 — lower, 34%
- B5 — lower, 10%
- B6 — lower, 7%
- B7 — lower, -1%
- B8 — lower, -7%
- B9 — lower, 22%
- B10 — lower, -7%
- B11 — lower, -8%
- B12 — lower, 51%
- B14 — lower, 8%
- B15 — lower, -16%
- B16 — lower, 5%
- B17 — lower, 16%
- B18 — lower, 43%
- B19 — lower, 15%

Point of comparison: B5, “Percent Inhibition of CXCR4/CXCL12 Induced p-MEK (1 µM Test Article)” value 72%. Against it:
- B1 — higher, 96%
- B2 — higher, 98%
- B3 — higher, 92%
- B4 — higher, 82%
- B6 — lower, 42%
- B7 — lower, 2%
- B8 — lower, -6%
- B9 — lower, -5%
- B10 — lower, 13%
- B11 — lower, 42%
- B12 — higher, 96%
- B13 — higher, 94%
- B14 — higher, 86%
- B15 — lower, 20%
- B16 — lower, 40%
- B17 — the same, 72%
- B18 — higher, 93%
- B19 — lower, 46%

The binders below were run against T2, SNAP tagged-CXC4 receptor labeled with terbium (Tag-lite CXCR4 cells, HEK293) (UniProt P61073 1-352, SNAP tag labeled with terbium fluorescent dye) (assay: HTRF competition on Tag-lite CXCR4 HEK293 cells; competitor labelled CXCL12).
T2 construct: whole, on cells; Bought frozen cells (PerkinElmer-CisBio), HEK293 transiently expressing the receptor; also called terbium labeled CXCR receptor
Procedure: (§1) Peptides were initially prepared as 1 mM stock in H₂O and tested at a final concentration of 400 nM. Following the manufacture's protocol, a frozen aliquot of Tag-lite CXCR4 cells was thawed and immediately seeded onto 384-well plates in TLB. Immediately following the addition of cells, 400 nM peptide (final concentration) in TLB was added to the appropriate well. […] The plates were covered in aluminum foil and left at room temperature for 3 hours. Following the 3 hour incubation period, the plates were removed from the incubator and fluorescence measured using a Cytation 1 plate reader using a HTRF filter cube ([…]; BioTek; Winooski, Vt.).

T2 sequence (P61073 whole entry): as above

Point of comparison: B1, “Percent Inhibition of CXCR4/CXCL12 Binding (400 nM peptide)” value 88%. Against it:
- B2 — lower, 5%
- B3 — lower, 79%
- B4 — lower, 60%
- B6 — lower, 77%
- B7 — lower, -17%
- B8 — lower, -13%
- B9 — lower, -11%
- B10 — lower, -5%
- B11 — lower, 3%
- B12 — lower, 12%
- B13 — lower, 29%
- B14 — lower, 6%
- B15 — lower, 81%
- B16 — lower, 53%
- B17 — lower, 56%
- B18 — lower, -3%
- B19 — lower, 54%

Target: T2, SNAP tagged-CXC4 receptor labeled with …
Assay: as above
Remark: another data set of the same source
Procedure: as §1, with “H₂O. […]” for “H₂O and tested at a final concentration of 400 nM.”, “TLB.” for “TLB. Immediately following the addition of cells, 400 nM peptide (final concentration) in TLB was added to the appropriate well.”

Point of comparison: B8, IC50 6310 nM. Against it:
- B1 — 1100-fold lower, 6 nM
- B2 — 58-fold lower, 108 nM
- B3 — 790-fold lower, 8 nM
- B4 — 370-fold lower, 17 nM
- B6 — 150-fold lower, 42 nM
- B7 — within 1.5-fold, 4540 nM
- B9 — within 1.5-fold, 5990 nM
- B10 — 11-fold lower, 563 nM
- B11 — 17-fold lower, 380 nM
- B12 — 36-fold lower, 175 nM
- B13 — 47-fold lower, 133 nM
- B14 — 11-fold lower, 589 nM
- B15 — 270-fold lower, 23 nM
- B17 — 200-fold lower, 31 nM
- B18 — 17-fold lower, 382 nM

Each binder was assayed against ProLink tagged human CXCR4 (C2C12 CXCR4 β-Arrestin cell line) (human, UniProt P61073 1-352) (assay: cell-based or functional assay).
Sequence of ProLink tagged human CXCR4 (C2C12 CXCR4 β-Arrestin cell line) (P61073 whole entry): as above

Point of comparison: B17, “IC50 for Inhibition of CXCR4 Activation (β-Arrestin recruitment)” value 4 nM. Against it:
- B1 — the same, 4 nM
- B2 — within 1.5-fold, 3 nM
- B3 — within 1.5-fold, 3 nM
- B4 — the same, 4 nM
- B5 — 8.2-fold higher, 33 nM
- B6 — 1.8-fold higher, 7 nM
- B7 — higher, > 1000 nM
- B8 — 73-fold higher, 291 nM
- B9 — higher, > 1000 nM
- B10 — 6.8-fold higher, 27 nM
- B11 — 3.5-fold higher, 14 nM
- B12 — within 1.5-fold, 3 nM
- B13 — within 1.5-fold, 3 nM
- B14 — within 1.5-fold, 5 nM
- B15 — within 1.5-fold, 3 nM
- B16 — 3.5-fold higher, 14 nM
- B18 — within 1.5-fold, 3 nM
- B19 — 2-fold higher, 8 nM
